Source: PMC8774053, “Genome-wide association of the metabolic shifts underpinning dark-induced senescence in Arabidopsis” (The Plant Cell, 2021)

Substrate: N[C@@H](Cc1ccc(O)cc1)C(=O)O
Assay: purified protein
Type: biochemical, Arabidopsis thaliana
Settings: 0-8 mM tyrosine, 100 mM alpha-ketoglutarate, 0.2 mM PLP, 100 mM Tris-HCl pH 8.5, 30 C, 5 min, constant not given in text, figure only

Protein | Km [µM] | kcat [s⁻¹]
TAT1^A (accession CAM-61) (Arabidopsis thaliana) (protein) MENGATTTSTITIKGILSLLMESITTEEDEGGKRVISLGMGDPTLYSCFRTTQVSLQAVSDSLLSNKFHGYSPTVGLPQARRAIAEYLSRDLPYKLSQDDVFITSGCTQAIDVALSMLARPRANILLPRPGFPIYELCAKFRHLEVRYVDLLPENGWEIDLDAVEALADENTVALVVINPGNPCGNVYSYQHLMKIAESAKKLGFLVIADEVYGHLAFGSKPFVPMGVFGSIVPVLTLGSLSKRWIVPGWRLGWFVTTDPSGSFKDPKIIERFKKYFDILGGPATFIQAAVPTILEQTDESFFKKTLNSLKNSSDICCDWIKEIPCIDSSHRPEGSMAMMVKLNLSLLEDVSDDIDFCFKLAREESVILLPGTAVGLKNWLRITFAADATSIEEAFKRIKCFYLRHAKTQYPTI | 410 ± 30 | 45.85 ± 0.88
TAT1 (Col-0, At5g53970.1; positive control) (Arabidopsis thaliana) (protein) MENGATTTSTITIKGILSLLMESITTEEDEGGKRVISLGMGDPTLYSCFRTTQVSLQAVSDSLLSNKFHGYSPTVGLPQARRAIAEYLSRDLPYKLSQDDVFITSGCTQAIDVALSMLARPRANILLPRPGFPIYELCAKFRHLEVRYVDLLPENGWEIDLDAVEALADENTVALVVINPGNPCGNVYSYQHLMKIAESAKKLGFLVIADEVYGHLAFGSKPFVPMGVFGSIVPVLTLGSLSKRWIVPGWRLGWFVTTDPSGSFKDPKIIERFKKYFDILGGPATFIQAAVPTILEQTDESFFKKTLNSLKNSSDICCDWIKEIPCIDSSHRPEGSMAMMVKLNLSLLEDVSDDIDFCFKLAREESVILLPGTAVGLKNWLRITFAADATSIEEAFKRIKCFYLRHAKTQYPTI | 390 ± 60 | 47.84 ± 1.72
